In paper PMC11707020:

Biological target: USP25 (UniProt Q9UHP3)
Assay: co-immunoprecipitation, western blot
Conditions: reference: HA-STAT3 wild type; sites Y705

## STAT3 (from UniProt P40763) HA-STAT3 Y705F
  binding against the reference: weaker
